{
  "source": "paper PMC4063770",
  "about": "“A Dimerized HMX1 Inhibits EPHA6/epha4b in Mouse and Zebrafish Retinas” (PLoS ONE, 2014)",
  "proteins": {"B1": {"name": "HA-tagged wild-type HMX1 (natural protein)", "chain": "not shown", "notes": "HMX1 (NKX5-3), wild type; also called HA-HMX1; source: HEK 293T, transfected, in lysate"}},
  "biological_target": "the molecule itself",
  "test": "native gel or EMSA; lysate in non-denaturing lysis buffer (20 mM Tris-HCl, 137 mM NaCl, 10% glycerol, 1% Triton X-100, 2 mM EDTA, pH 8.0), 5 ug on a 4-15% gel run without SDS, compared with a denaturing gel; Western blot with anti-HA",
  "data": [
    {"protein": "B1", "values": [
      {"measurement": "stoichiometry N", "result": 2}
    ]}
  ]
}
